Experiments:
[1] = target: T1, α4β1 integrin (UniProt P13612 34-1032; P05556 21-798); test: J6 cell adhesion to coated GST fusion, with and without BIO1211
T1 construct: whole, on cells; Endogenous integrin on the J6 and HL60 cell lines; adhesion run with 0.2 mM MnCl2 (and TPA for HL60); also called α4 integrin on J6 and HL60 cells

[2] = target: T2, α5β1 integrin (UniProt P08648 42-1049; P05556 21-798); test: J6 cell adhesion to coated GST fusion in the presence of BIO1211
T2 construct: whole, on cells; Endogenous integrin on J6 cells
T2 sequence (P08648 42-1049, chain 1 of 2): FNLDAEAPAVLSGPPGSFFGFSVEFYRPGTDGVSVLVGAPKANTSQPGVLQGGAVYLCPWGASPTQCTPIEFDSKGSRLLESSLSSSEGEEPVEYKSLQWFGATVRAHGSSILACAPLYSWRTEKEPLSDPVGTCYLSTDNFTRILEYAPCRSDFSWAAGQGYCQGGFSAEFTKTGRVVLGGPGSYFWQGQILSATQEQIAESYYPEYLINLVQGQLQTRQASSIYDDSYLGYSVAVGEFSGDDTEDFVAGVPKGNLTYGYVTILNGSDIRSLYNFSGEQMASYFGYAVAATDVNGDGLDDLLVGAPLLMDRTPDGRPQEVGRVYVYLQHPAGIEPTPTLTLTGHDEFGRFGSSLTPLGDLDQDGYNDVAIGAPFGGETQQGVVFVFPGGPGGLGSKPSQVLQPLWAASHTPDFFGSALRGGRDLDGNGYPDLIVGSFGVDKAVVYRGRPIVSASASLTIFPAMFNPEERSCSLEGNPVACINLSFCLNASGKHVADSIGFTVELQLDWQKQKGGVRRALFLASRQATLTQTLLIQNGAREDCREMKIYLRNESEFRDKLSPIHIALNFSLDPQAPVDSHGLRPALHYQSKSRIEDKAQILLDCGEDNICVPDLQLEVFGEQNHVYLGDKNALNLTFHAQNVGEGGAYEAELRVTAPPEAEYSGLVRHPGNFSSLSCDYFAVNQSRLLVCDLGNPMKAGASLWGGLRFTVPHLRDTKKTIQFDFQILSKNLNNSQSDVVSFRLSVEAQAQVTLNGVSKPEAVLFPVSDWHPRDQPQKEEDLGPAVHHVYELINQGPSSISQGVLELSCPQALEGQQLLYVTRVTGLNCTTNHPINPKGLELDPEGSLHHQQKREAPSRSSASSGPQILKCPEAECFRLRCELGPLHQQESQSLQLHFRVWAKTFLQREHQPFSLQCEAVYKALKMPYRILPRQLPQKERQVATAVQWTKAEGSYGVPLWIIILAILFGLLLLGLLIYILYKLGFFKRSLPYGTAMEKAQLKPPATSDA
T2 sequence (P05556 21-798, chain 2 of 2): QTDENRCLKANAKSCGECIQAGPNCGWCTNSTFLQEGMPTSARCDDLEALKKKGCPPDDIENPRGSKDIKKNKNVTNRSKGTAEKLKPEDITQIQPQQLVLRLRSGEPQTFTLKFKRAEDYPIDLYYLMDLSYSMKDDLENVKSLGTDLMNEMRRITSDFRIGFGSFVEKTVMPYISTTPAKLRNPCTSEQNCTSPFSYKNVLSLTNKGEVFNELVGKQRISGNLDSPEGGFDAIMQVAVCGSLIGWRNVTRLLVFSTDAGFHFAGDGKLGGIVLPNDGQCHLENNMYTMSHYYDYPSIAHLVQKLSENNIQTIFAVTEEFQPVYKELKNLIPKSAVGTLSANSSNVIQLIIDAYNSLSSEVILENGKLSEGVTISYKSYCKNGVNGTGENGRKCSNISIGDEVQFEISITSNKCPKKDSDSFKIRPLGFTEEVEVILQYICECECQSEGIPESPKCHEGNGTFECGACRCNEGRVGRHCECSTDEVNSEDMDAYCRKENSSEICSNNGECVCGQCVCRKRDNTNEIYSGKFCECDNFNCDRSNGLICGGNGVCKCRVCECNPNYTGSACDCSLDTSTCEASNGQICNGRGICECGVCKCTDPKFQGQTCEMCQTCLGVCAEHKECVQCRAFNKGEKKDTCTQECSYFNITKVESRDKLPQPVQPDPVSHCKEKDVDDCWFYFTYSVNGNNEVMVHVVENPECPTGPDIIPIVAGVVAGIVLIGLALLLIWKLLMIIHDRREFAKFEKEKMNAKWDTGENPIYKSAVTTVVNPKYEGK

[3] = target: T1, α4β1 integrin; test: adhesion of J6 and HL60 cells to coated GST fusion with function blocking antibodies
Procedure: Cells were incubated for 35 minutes at 37° C. in the presence of or absence of various function blocking anti-integrin antibodies at 10 μg/ml. To prebind the antibodies cells were preincubated on ice for 10 minutes before being moved to 37° C. Each data point represents the mean±SD of duplicate points. […] To stimulate α4β1 binding to OPN, 50 ng/ml TPA was also included. Cells were incubated for 35 minutes at 37° C. in the presence or absence of various function blocking anti-integrin antibodies at 10 μg/ml. To prebind the antibodies cells were preincubated on ice for 10 minutes before being moved to 37° C. Each data point represents the mean±SD of duplicate points.

[4] = target: T2, α5β1 integrin; test: J6 cell adhesion to coated GST fusion that is left in the presence of BIO1211

T1 sequence (P13612 34-1032, chain 1 of 2): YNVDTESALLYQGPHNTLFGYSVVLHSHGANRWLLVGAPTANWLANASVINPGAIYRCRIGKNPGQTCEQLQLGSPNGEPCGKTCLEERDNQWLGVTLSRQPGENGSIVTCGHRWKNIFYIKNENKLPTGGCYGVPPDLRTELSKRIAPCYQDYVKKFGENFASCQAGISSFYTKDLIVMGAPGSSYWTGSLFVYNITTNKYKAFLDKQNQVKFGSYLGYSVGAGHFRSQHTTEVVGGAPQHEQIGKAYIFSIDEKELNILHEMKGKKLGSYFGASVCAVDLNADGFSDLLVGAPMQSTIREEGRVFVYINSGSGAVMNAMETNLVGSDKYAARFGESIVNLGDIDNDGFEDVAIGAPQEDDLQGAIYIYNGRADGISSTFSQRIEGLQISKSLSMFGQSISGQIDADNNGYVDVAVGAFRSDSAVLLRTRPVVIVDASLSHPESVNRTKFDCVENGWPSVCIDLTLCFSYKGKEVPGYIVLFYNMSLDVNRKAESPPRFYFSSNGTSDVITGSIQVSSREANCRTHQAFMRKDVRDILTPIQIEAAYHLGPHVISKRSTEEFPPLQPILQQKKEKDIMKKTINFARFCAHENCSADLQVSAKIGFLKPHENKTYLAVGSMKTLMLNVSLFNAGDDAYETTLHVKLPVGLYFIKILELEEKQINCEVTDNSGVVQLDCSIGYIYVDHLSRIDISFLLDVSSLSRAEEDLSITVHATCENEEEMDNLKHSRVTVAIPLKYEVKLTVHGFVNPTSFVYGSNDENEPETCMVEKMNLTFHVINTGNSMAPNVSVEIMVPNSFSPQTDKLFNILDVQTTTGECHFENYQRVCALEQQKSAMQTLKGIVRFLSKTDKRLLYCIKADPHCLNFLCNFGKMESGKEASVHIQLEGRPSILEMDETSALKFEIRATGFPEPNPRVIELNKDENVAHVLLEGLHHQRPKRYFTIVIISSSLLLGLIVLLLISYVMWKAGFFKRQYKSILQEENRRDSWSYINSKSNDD
T1 sequence (P05556 21-798, chain 2 of 2): as the sequence (P05556 21-798, chain 2 of 2) above

B1: GST fusion protein of OPN aa125-168 (ligand)
chain: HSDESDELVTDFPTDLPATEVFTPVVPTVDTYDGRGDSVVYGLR
notes: not shown: GST carrier and the linker of the modified pGEX-2T vector
[1]
  binding result: binds
[2]
  binding result: binds

B2: GST fusion protein representing intact osteopontin (aa17-314) (ligand)
chain: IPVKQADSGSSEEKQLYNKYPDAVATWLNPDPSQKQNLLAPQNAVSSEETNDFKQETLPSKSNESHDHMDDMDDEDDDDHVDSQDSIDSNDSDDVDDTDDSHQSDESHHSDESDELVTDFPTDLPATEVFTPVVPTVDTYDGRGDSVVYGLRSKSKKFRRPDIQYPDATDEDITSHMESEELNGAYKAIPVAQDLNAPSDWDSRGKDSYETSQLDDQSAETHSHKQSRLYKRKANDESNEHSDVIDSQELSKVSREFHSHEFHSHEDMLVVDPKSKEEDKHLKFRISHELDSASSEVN
notes: Expressed in E. coli UT5600; coated on plates; also called intact OPN; full length OPN; not shown: GST carrier and the linker of the modified pGEX-2T vector
[3]
  binding result: binds

B3: GST fusion protein of thrombin cleaved OPN (aa17-168) (ligand)
chain: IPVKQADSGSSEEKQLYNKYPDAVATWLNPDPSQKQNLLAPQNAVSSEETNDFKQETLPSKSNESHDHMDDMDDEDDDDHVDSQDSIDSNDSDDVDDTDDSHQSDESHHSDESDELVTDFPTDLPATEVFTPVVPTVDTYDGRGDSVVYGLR
notes: Stop codon after aa168, so that Arg168 is the free C-terminus; also called thrombin cleaved fragment; not shown: GST carrier and the linker of the modified pGEX-2T vector
[1]
  binding result: binds
[4]
  binding result: binds

— patent US20030186325A1 (GlaxoSmithKline, published 2003)
